Measurements as given in the supplement of paper PMC9112550, “Optimization of the antimicrobial peptide Bac7 by deep mutational scanning” (BMC Biology, 2022).

test system: Escherichia coli TOP10; assay: shrunken log2 fold change of peptide-encoding DNA abundance (4.5 h post-induction vs induction); higher = less antimicrobial activity (less host growth inhibition); conditions: time post-induction: 4.5 h; library: site-saturation at positions 5, 18, 19, 20
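Further: peptides expressed intracellularly from a pBAD plasmid library in pooled LB shake-flask culture, induced with 0.3% L-arabinose, DNA abundance read by NGS, three biological replicates, DESeq2 with apeglm shrinkage.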

Point of comparison: RRIRLRPPRLPRPRPRPNGFPRP, “shrunken log2 fold change” value -0.27. Against it:
- RRIRIRPPRLPRPRPRPIPTPRP — higher, -0.0342
- RRIRIRPPRLPRPRPRPDMEPRP — higher, 0.0763
- RRIRSRPPRLPRPRPRPEYLPRP — higher, -0.0519
- RRIRERPPRLPRPRPRPQAKPRP — higher, 0.162
- RRIRQRPPRLPRPRPRPACGPRP — higher, 0.217
- RRIRGRPPRLPRPRPRPSYTPRP — higher, 0.307
- RRIRNRPPRLPRPRPRPVRCPRP — higher, 0.0872
- RRIRGRPPRLPRPRPRPRAPPRP — higher, 1.05
- RRIRTRPPRLPRPRPRPLAEPRP — higher, 0.107
- RRIRMRPPRLPRPRPRPNMCPRP — higher, 0.0492
- RRIRKRPPRLPRPRPRPAFMPRP — higher, 0.341
- RRIRIRPPRLPRPRPRPIFSPRP — within 0.2 log units, -0.181
- RRIRLRPPRLPRPRPRPRWKPRP — higher, 0.191
- RRIRARPPRLPRPRPRPMSQPRP — higher, 0.235
- RRIRIRPPRLPRPRPRPRRSPRP — higher, 0.347
- RRIRWRPPRLPRPRPRPREEPRP — higher, 0.55
- RRIRNRPPRLPRPRPRPSTCPRP — within 0.2 log units, -0.186
- RRIRYRPPRLPRPRPRPSDDPRP — lower, -0.917
- RRIRRRPPRLPRPRPRPLSDPRP — higher, 0.144
- RRIRERPPRLPRPRPRPKDYPRP — higher, 0.101
- RRIRQRPPRLPRPRPRPQNLPRP — higher, -0.0271
- RRIRDRPPRLPRPRPRPDLQPRP — higher, 1.54
- RRIRGRPPRLPRPRPRPPLMPRP — higher, 0.717
- RRIRFRPPRLPRPRPRPGGEPRP — higher, 0.271
- RRIRIRPPRLPRPRPRPVVWPRP — higher, 0.321
- RRIRIRPPRLPRPRPRPWVHPRP — higher, -0.0605
- RRIRDRPPRLPRPRPRPEITPRP — higher, 0.0482
- RRIRVRPPRLPRPRPRPYLHPRP — lower, -0.879
- RRIRARPPRLPRPRPRPFMPPRP — within 0.2 log units, -0.149
- RRIRPRPPRLPRPRPRPFSEPRP — within 0.2 log units, -0.436
- RRIRNRPPRLPRPRPRPNQKPRP — within 0.2 log units, -0.174
- RRIRTRPPRLPRPRPRPPCNPRP — higher, -0.0091
- RRIRHRPPRLPRPRPRPDSPPRP — higher, 0.0316
- RRIRWRPPRLPRPRPRPQGCPRP — higher, 0.0267
- RRIRKRPPRLPRPRPRPERCPRP — higher, 0.559
- RRIRWRPPRLPRPRPRPPFRPRP — higher, 0.632
- RRIRYRPPRLPRPRPRPFCYPRP — within 0.2 log units, -0.432
- RRIRQRPPRLPRPRPRPPSRPRP — higher, 0.138
- RRIRKRPPRLPRPRPRPKNDPRP — higher, 0.186
- RRIRMRPPRLPRPRPRPIAYPRP — higher, 0.0419
- RRIRVRPPRLPRPRPRPFRTPRP — within 0.2 log units, -0.0962
- RRIRTRPPRLPRPRPRPEFVPRP — higher, 0.107
- RRIRARPPRLPRPRPRPIQLPRP — higher, -0.0651
- RRIRTRPPRLPRPRPRPFQCPRP — higher, -0.0173
- RRIRARPPRLPRPRPRPQDFPRP — higher, -0.0122
- RRIRGRPPRLPRPRPRPRPWPRP — higher, 0.77
- RRIRIRPPRLPRPRPRPGSPPRP — within 0.2 log units, -0.19
- RRIRIRPPRLPRPRPRPKMDPRP — higher, 0.0209
- RRIRLRPPRLPRPRPRPQPVPRP — higher, 0.0205
- RRIRARPPRLPRPRPRPDDHPRP — higher, 0.432
- RRIRERPPRLPRPRPRPCGRPRP — higher, -0.0316
- RRIRSRPPRLPRPRPRPYFWPRP — lower, -0.538
- RRIRMRPPRLPRPRPRPPVYPRP — higher, 0.167
- RRIRYRPPRLPRPRPRPKLGPRP — within 0.2 log units, -0.0974
- RRIRVRPPRLPRPRPRPLERPRP — higher, -0.0607
- RRIRSRPPRLPRPRPRPVIFPRP — within 0.2 log units, -0.335
- RRIRFRPPRLPRPRPRPAMAPRP — higher, 0.0902
- RRIRMRPPRLPRPRPRPWQEPRP — within 0.2 log units, -0.107
- RRIRFRPPRLPRPRPRPWIHPRP — lower, -0.804
- RRIRTRPPRLPRPRPRPTKDPRP — within 0.2 log units, -0.244
- RRIRPRPPRLPRPRPRPWNNPRP — lower, -0.561
- RRIRSRPPRLPRPRPRPGLVPRP — higher, 0.275
- RRIRRRPPRLPRPRPRPWMFPRP — higher, 0.0935
- RRIRWRPPRLPRPRPRPYGDPRP — within 0.2 log units, -0.113
- RRIRFRPPRLPRPRPRPQYEPRP — higher, 0.0625
- RRIRARPPRLPRPRPRPPIGPRP — higher, 0.287
- RRIRARPPRLPRPRPRPYTQPRP — lower, -0.593
- RRIRARPPRLPRPRPRPSWKPRP — higher, 0.237
- RRIRHRPPRLPRPRPRPHRMPRP — within 0.2 log units, -0.46
- RRIRCRPPRLPRPRPRPAPMPRP — higher, 0.308
- RRIRTRPPRLPRPRPRPCCWPRP — higher, 0.0822
- RRIRKRPPRLPRPRPRPMSTPRP — higher, 0.41
- RRIRPRPPRLPRPRPRPYFNPRP — lower, -0.619
- RRIRSRPPRLPRPRPRPKLCPRP — higher, 0.0502
- RRIRERPPRLPRPRPRPGPMPRP — higher, 0.224
- RRIRQRPPRLPRPRPRPACEPRP — within 0.2 log units, -0.0795
- RRIRTRPPRLPRPRPRPIDNPRP — lower, -0.51
- RRIRDRPPRLPRPRPRPLVSPRP — higher, 0.469
- RRIRVRPPRLPRPRPRPNQMPRP — within 0.2 log units, -0.092
- RRIRPRPPRLPRPRPRPMWFPRP — within 0.2 log units, -0.113
- RRIRLRPPRLPRPRPRPNAIPRP — within 0.2 log units, -0.385
- RRIRHRPPRLPRPRPRPLHQPRP — higher, -0.00684
- RRIRLRPPRLPRPRPRPIQDPRP — within 0.2 log units, -0.105
- RRIRDRPPRLPRPRPRPSCTPRP — within 0.2 log units, -0.244
- RRIRIRPPRLPRPRPRPTTQPRP — higher, 0.102
- RRIRPRPPRLPRPRPRPYDRPRP — within 0.2 log units, -0.319
- RRIRHRPPRLPRPRPRPYMYPRP — lower, -1.14
- RRIRNRPPRLPRPRPRPGASPRP — higher, 0.412
- RRIRWRPPRLPRPRPRPSFKPRP — within 0.2 log units, -0.226
- RRIRFRPPRLPRPRPRPIFYPRP — within 0.2 log units, -0.0962
- RRIRKRPPRLPRPRPRPRHTPRP — higher, 0.328
- RRIRYRPPRLPRPRPRPVDNPRP — higher, -0.0156
- RRIRNRPPRLPRPRPRPIYVPRP — lower, -0.892
- RRIRIRPPRLPRPRPRPPSIPRP — higher, 0.122
- RRIRARPPRLPRPRPRPPYMPRP — within 0.2 log units, -0.467
- RRIRKRPPRLPRPRPRPSQNPRP — higher, 0.269
- RRIRTRPPRLPRPRPRPFSPPRP — within 0.2 log units, -0.375
- RRIRLRPPRLPRPRPRPAQAPRP — higher, -0.0635
- RRIRERPPRLPRPRPRPAMPPRP — higher, -0.0115
- RRIRERPPRLPRPRPRPQMEPRP — higher, 0.00522
- RRIRQRPPRLPRPRPRPMVPPRP — higher, -0.0191
- RRIRLRPPRLPRPRPRPVQWPRP — higher, 0.288
- RRIRCRPPRLPRPRPRPNKMPRP — within 0.2 log units, -0.393
- RRIRLRPPRLPRPRPRPPWLPRP — higher, 0.439
- RRIRFRPPRLPRPRPRPTEWPRP — higher, 0.00734
- RRIRMRPPRLPRPRPRPCQHPRP — within 0.2 log units, -0.188
- RRIRNRPPRLPRPRPRPMYIPRP — lower, -1.03
- RRIRPRPPRLPRPRPRPWCVPRP — within 0.2 log units, -0.133
